B1: STEAP1 (parent)
chain: WMLTRKQFGLLSFFFAVLHAIYSL
B2: ZBED2 (parent)
chain: FHLAPARAGHHPNQYATCRLCGRQ

Variants of: B1
Experiment: protein stability index of a GFP-peptide fusion (GPS, HEK-293T) (PSI 1-6); higher = more stable
Conditions: c terminus: a fixed tail appended
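Also: lentivirally expressed fusions sorted by FACS into six bins by GFP to DsRed ratio, PSI derived from sequencing read proportions per bin multiplied by bin number.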

Variant | protein stability index
WMLTRKQFGLLSHFFAVLHAIYSL [F13H] | 3.2
WMLTRKQFGLLSMFFAVLHAIYSL [F13M] | 2.13
WMLTRKQFGLLQFFFAVLHAIYSL [S12Q] | 2.38
WMLTRKQFGLLFFFFAVLHAIYSL [S12F] | 1.9
WMLTRKQFGLLRFFFAVLHAIYSL [S12R] | 2.57
WMLTRKQFGLLIFFFAVLHAIYSL [S12I] | 1.61
WMLTRKQFGLLHFFFAVLHAIYSL [S12H] | 1.94
WMLTRKQFGLLTFFFAVLHAIYSL [S12T] | 1.84
WMLTRKQFGLLWFFFAVLHAIYSL [S12W] | 2.76
WMLTRKQFGLLKFFFAVLHAIYSL [S12K] | 1.86
WMLTRKQFGLLCFFFAVLHAIYSL [S12C] | 1.88
WMLTRKQFGLLYFFFAVLHAIYSL [S12Y] | 1.25
WMLTRKQFGLLSFFGAVLHAIYSL [F15G] | 1.58
WMLTRKQFGLLSFFSAVLHAIYSL [F15S] | 1.74
WMLTRKQFGLLSFFAAVLHAIYSL [F15A] | 1.82
WMLTRKQFGLLSFFRAVLHAIYSL [F15R] | 1.7
WMLTRKQFGLLSFFHAVLHAIYSL [F15H] | 1.73
WMLTRKQFGLLSFFTAVLHAIYSL [F15T] | 1.32
WMLTRKQFGLLSFFNAVLHAIYSL [F15N] | 1.4
WMLTRKQFGLLSFFQAVLHAIYSL [F15Q] | 2.62
WMLTRKQFGLLSFFPAVLHAIYSL [F15P] | 1.78
WMLTRKQFGLLSFFKAVLHAIYSL [F15K] | 1.58
WMLTRKQFGLLSFFFAVLHAIYFL [S23F] | 1.79

Variant | protein stability index
WMLTRKQFGLLSFFFAVLHAIYWL [S23W] | 2
WMLTRKQFGLLSFFFAVLHAIYEL [S23E] | 1.49
WMLTRKQFGLLSFFFAVLHAIYTL [S23T] | 1.55
WMLTRKQFGLLSFFFAVLHAIYHL [S23H] | 1.71
WMLTRKQFGLLSFFFAVLHAIYQL [S23Q] | 1.39
WMLTRKQFGLLSFFFAVLHAIYVL [S23V] | 1.94
WMLTRKQFGLLSFFFAVLHAIYCL [S23C] | 1.75
WMLTRKQFGLLSFFFAVLHAIYDL [S23D] | 1.95
WMLTRKQEGLLSFFFAVLHAIYSL [F8E] | 1.64
WMLTRKQWGLLSFFFAVLHAIYSL [F8W] | 1.88
WMLTRKQTGLLSFFFAVLHAIYSL [F8T] | 3.12
WMLTRKQIGLLSFFFAVLHAIYSL [F8I] | 1.5
WMLTRKQYGLLSFFFAVLHAIYSL [F8Y] | 1.84
WMLTRKQDGLLSFFFAVLHAIYSL [F8D] | 2.31
WMLTRKQRGLLSFFFAVLHAIYSL [F8R] | 2.31
WMLTRKQAGLLSFFFAVLHAIYSL [F8A] | 1.74
WMLTRKQKGLLSFFFAVLHAIYSL [F8K] | 1.67
WMLTRKQLGLLSFFFAVLHAIYSL [F8L] | 2.04
WMLTRKQFELLSFFFAVLHAIYSL [G9E] | 1.99
WMLTRKQFQLLSFFFAVLHAIYSL [G9Q] | 2.07
WMLTRKQFMLLSFFFAVLHAIYSL [G9M] | 2.12
WMLTRKQFHLLSFFFAVLHAIYSL [G9H] | 2
WMLTRKQFYLLSFFFAVLHAIYSL [G9Y] | 2.75

Variant | protein stability index
WMLTRKQFILLSFFFAVLHAIYSL [G9I] | 1.83
WMLTRKQFRLLSFFFAVLHAIYSL [G9R] | 2.97
WMLTRKQFKLLSFFFAVLHAIYSL [G9K] | 2.04
WMLTRKQFTLLSFFFAVLHAIYSL [G9T] | 1.25
WMLTRKAFGLLSFFFAVLHAIYSL [Q7A] | 2.49
WMLTRKGFGLLSFFFAVLHAIYSL [Q7G] | 1.78
WMLTRKLFGLLSFFFAVLHAIYSL [Q7L] | 1.94
WMLTRKRFGLLSFFFAVLHAIYSL [Q7R] | 1.7
WMLTRKNFGLLSFFFAVLHAIYSL [Q7N] | 2.23
WMLTRKTFGLLSFFFAVLHAIYSL [Q7T] | 2.17
WMLTRKYFGLLSFFFAVLHAIYSL [Q7Y] | 2.28
WFLTRKQFGLLSFFFAVLHAIYSL [M2F] | 1.73
WHLTRKQFGLLSFFFAVLHAIYSL [M2H] | 1.7
WQLTRKQFGLLSFFFAVLHAIYSL [M2Q] | 1.77
WWLTRKQFGLLSFFFAVLHAIYSL [M2W] | 1.75
WLLTRKQFGLLSFFFAVLHAIYSL [M2L] | 1.97
WVLTRKQFGLLSFFFAVLHAIYSL [M2V] | 1.85
WMLTRKQFGLLSFFFAVLHGIYSL [A20G] | 2.13
WMLTRKQFGLLSFFFAVLHDIYSL [A20D] | 2.62
WMLTRKQFGLLSFFFAVLHMIYSL [A20M] | 1.66
WMLTRKQFGLLSFFFAVLHHIYSL [A20H] | 1.62
WMLTRKQFGLLSFFFAVLHSIYSL [A20S] | 2.41
WMLTRKQFGLLSFFFAVLHQIYSL [A20Q] | 2.69

Variant | protein stability index
WMLTRKQFGLLSFFFAVLHFIYSL [A20F] | 2.8
WMLTRKQFGLLSFFFAVLHPIYSL [A20P] | 2.51
WMLTRKQFGLLSFFFAVLHTIYSL [A20T] | 1.36
MMLTRKQFGLLSFFFAVLHAIYSL [W1M] | 1.88
GMLTRKQFGLLSFFFAVLHAIYSL [W1G] | 1.91
DMLTRKQFGLLSFFFAVLHAIYSL [W1D] | 2.04
YMLTRKQFGLLSFFFAVLHAIYSL [W1Y] | 2.37
HMLTRKQFGLLSFFFAVLHAIYSL [W1H] | 2.1
WMLTPKQFGLLSFFFAVLHAIYSL [R5P] | 2.2
WMLTCKQFGLLSFFFAVLHAIYSL [R5C] | 1.52
WMLTWKQFGLLSFFFAVLHAIYSL [R5W] | 2.1
WMLTNKQFGLLSFFFAVLHAIYSL [R5N] | 2.12
WMLTHKQFGLLSFFFAVLHAIYSL [R5H] | 3.39
WMLTAKQFGLLSFFFAVLHAIYSL [R5A] | 1.04
WMLTRKQFGLLSFFFAPLHAIYSL [V17P] | 2.19
WMLTRKQFGLLSFFFAHLHAIYSL [V17H] | 3.31
WMLTRKQFGLLSFFFAYLHAIYSL [V17Y] | 2.99
WMLTRKQFGLLSFFFAGLHAIYSL [V17G] | 2.58
WMLTRKQFGLLSFFFAQLHAIYSL [V17Q] | 3.15
WMLTRKQFGLLSFFFAELHAIYSL [V17E] | 2.34
WMLTRKQFGLLSFFFANLHAIYSL [V17N] | 4.05
WMLTRKQFGLLSFFFAWLHAIYSL [V17W] | 2.33

Variants of: B2
Experiment: as above
Conditions: c terminus: a fixed tail appended

Variant | protein stability index
FHLAPARAGHHPNQYATCRLCGRV [Q24V] | 1.7
FHLAPARAGHHPNQYATCRLCGRY [Q24Y] | 1.53
FHLAPARAGHHPNQYATCRLCGRT [Q24T] | 1.65
